Assay results taken from patent US20220033501A1.

What was measured:
[1] = target: monkey TIM-3 extracellular domain protein with hFc tag (cTIM-3-hFc) (monkey); assay: ELISA, coated monkey TIM-3 ECD protein, 0.0001 nM antibody
[2] = target: human TIM-3 on CHOK1 stable cell line (CHOK1-hTIM-3) (human) (UniProt Q8TDQ0); assay: FACS, CHOK1-hTIM-3 cells, 0 nM antibody
[3] = target: human TIM-3 extracellular domain protein with hFc tag (hTIM-3-hFc) (human) (UniProt Q8TDQ0); assay: FACS, blocking of hTIM-3-hFc binding to phosphatidylserine on apoptotic Jurkat cells, 0.823 nM antibody
[4] = target: human TIM-3 extracellular domain protein with hFc tag (hTIM-3-hFc) (human) (UniProt Q8TDQ0); assay: FACS, blocking of hTIM-3-hFc binding to phosphatidylserine on apoptotic Jurkat cells, 66.667 nM antibody
[5] = target: murine TIM-3 extracellular domain protein with hFc tag (mTIM-3-hFc) (mouse) (UniProt Q8VIM0); assay: ELISA, coated mouse TIM-3 ECD protein, 0 nM antibody
[6] = target: human TIM-3 extracellular domain protein with hFc tag (hTIM-3-hFc) (human) (UniProt Q8TDQ0); assay: ELISA, coated human TIM-3 ECD protein, 0.6667 nM antibody
[7] = target: human TIM-3 on CHOK1 stable cell line (CHOK1-hTIM-3) (human) (UniProt Q8TDQ0); assay: FACS, CHOK1-hTIM-3 cells, 1.6 nM antibody
[8] = target: monkey TIM-3 on CHOK1 stable cell line (CHOK1-cTIM-3) (monkey); assay: FACS, CHOK1-cTIM-3 cells, 0.064 nM antibody
[9] = target: human TIM-3 extracellular domain protein with hFc tag (hTIM-3-hFc) (human) (UniProt Q8TDQ0); assay: FACS, blocking of hTIM-3-hFc binding to phosphatidylserine on apoptotic Jurkat cells, 2.469 nM antibody
[10] = target: human TIM-3 extracellular domain protein with hFc tag (hTIM-3-hFc) (human) (UniProt Q8TDQ0); assay: ELISA, coated human TIM-3 ECD protein, 6.6667 nM antibody
[11] = target: monkey TIM-3 on CHOK1 stable cell line (CHOK1-cTIM-3) (monkey); assay: FACS, CHOK1-cTIM-3 cells, 0 nM antibody
[12] = target: monkey TIM-3 extracellular domain protein with hFc tag (cTIM-3-hFc) (monkey); assay: ELISA, coated monkey TIM-3 ECD protein, 0.6667 nM antibody
[13] = target: monkey TIM-3 extracellular domain protein with hFc tag (cTIM-3-hFc) (monkey); assay: ELISA, coated monkey TIM-3 ECD protein, 66.667 nM antibody
[14] = target: monkey TIM-3 on CHOK1 stable cell line (CHOK1-cTIM-3) (monkey); assay: FACS, CHOK1-cTIM-3 cells, 0.013 nM antibody
[15] = target: human TIM-3 on CHOK1 stable cell line (CHOK1-hTIM-3) (human) (UniProt Q8TDQ0); assay: FACS, CHOK1-hTIM-3 cells, 40 nM antibody
[16] = target: murine TIM-3 extracellular domain protein with hFc tag (mTIM-3-hFc) (mouse) (UniProt Q8VIM0); assay: ELISA, coated mouse TIM-3 ECD protein, 0.0667 nM antibody
[17] = target: human TIM-3 extracellular domain protein with hFc tag (hTIM-3-hFc) (human) (UniProt Q8TDQ0); assay: ELISA, coated human TIM-3 ECD protein, 66.667 nM antibody
[18] = target: monkey TIM-3 extracellular domain protein with hFc tag (cTIM-3-hFc) (monkey); assay: ELISA, coated monkey TIM-3 ECD protein, 0.0007 nM antibody
[19] = target: monkey TIM-3 extracellular domain protein with hFc tag (cTIM-3-hFc) (monkey); assay: ELISA, coated monkey TIM-3 ECD protein, 6.6667 nM antibody
[20] = target: human TIM-3 extracellular domain protein with hFc tag (hTIM-3-hFc) (human) (UniProt Q8TDQ0); assay: FACS, blocking of hTIM-3-hFc binding to phosphatidylserine on apoptotic Jurkat cells, 22.222 nM antibody
[21] = target: monkey TIM-3 on CHOK1 stable cell line (CHOK1-cTIM-3) (monkey); assay: FACS, CHOK1-cTIM-3 cells, 8 nM antibody
[22] = target: TIM-3 protein on human peripheral blood mononuclear lymphocytes (PBMC) (human) (UniProt Q8TDQ0); assay: cell-based or functional assay
[23] = target: human TIM-3 extracellular domain protein with hFc tag (hTIM-3-hFc) (human) (UniProt Q8TDQ0); assay: ELISA, coated human TIM-3 ECD protein, 0.0067 nM antibody
[24] = target: murine TIM-3 extracellular domain protein with hFc tag (mTIM-3-hFc) (mouse) (UniProt Q8VIM0); assay: ELISA, coated mouse TIM-3 ECD protein, 66.667 nM antibody
[25] = target: human TIM-3 extracellular domain protein with hFc tag (hTIM-3-hFc) (human) (UniProt Q8TDQ0); assay: ELISA, coated human TIM-3 ECD protein, 0.0667 nM antibody
[26] = target: murine TIM-3 extracellular domain protein with hFc tag (mTIM-3-hFc) (mouse) (UniProt Q8VIM0); assay: ELISA, coated mouse TIM-3 ECD protein, 0.0007 nM antibody
[27] = target: monkey TIM-3 on CHOK1 stable cell line (CHOK1-cTIM-3) (monkey); assay: FACS, CHOK1-cTIM-3 cells, 40 nM antibody
[28] = target: human TIM-3 extracellular domain protein with hFc tag (hTIM-3-hFc) (human) (UniProt Q8TDQ0); assay: FACS, blocking of hTIM-3-hFc binding to phosphatidylserine on apoptotic Jurkat cells, 200 nM antibody
[29] = target: monkey TIM-3 on CHOK1 stable cell line (CHOK1-cTIM-3) (monkey); assay: FACS, CHOK1-cTIM-3 cells, 0.32 nM antibody

monkey TIM-3 on CHOK1 stable cell line (CHOK1-cTIM-3) (monkey), sequence (chain, as listed by the source limits assumed): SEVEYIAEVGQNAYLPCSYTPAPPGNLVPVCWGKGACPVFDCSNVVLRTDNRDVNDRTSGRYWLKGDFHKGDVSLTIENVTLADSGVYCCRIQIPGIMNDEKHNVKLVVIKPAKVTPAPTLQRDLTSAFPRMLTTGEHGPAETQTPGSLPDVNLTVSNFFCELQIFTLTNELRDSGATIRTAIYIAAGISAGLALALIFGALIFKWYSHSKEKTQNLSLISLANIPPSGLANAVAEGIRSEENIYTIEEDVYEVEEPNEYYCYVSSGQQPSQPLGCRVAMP
murine TIM-3 extracellular domain protein with hFc tag (mTIM-3-hFc) (mouse), sequence (Q8VIM0 other isoform, or with tags, fused parts or gaps): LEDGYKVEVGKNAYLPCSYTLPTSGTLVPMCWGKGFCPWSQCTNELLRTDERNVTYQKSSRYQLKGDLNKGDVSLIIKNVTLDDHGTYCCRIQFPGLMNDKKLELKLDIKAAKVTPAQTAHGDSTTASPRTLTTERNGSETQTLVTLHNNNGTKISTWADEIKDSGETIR
monkey TIM-3 extracellular domain protein with hFc tag (cTIM-3-hFc) (monkey), sequence (chain, as listed by the source): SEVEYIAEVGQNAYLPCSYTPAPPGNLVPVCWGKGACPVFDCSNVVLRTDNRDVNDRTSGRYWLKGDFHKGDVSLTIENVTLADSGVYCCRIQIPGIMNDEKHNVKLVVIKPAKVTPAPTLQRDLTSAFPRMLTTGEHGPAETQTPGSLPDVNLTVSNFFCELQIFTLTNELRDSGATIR
human TIM-3 on CHOK1 stable cell line (CHOK1-hTIM-3) (human), sequence (Q8TDQ0 22-301 limits assumed): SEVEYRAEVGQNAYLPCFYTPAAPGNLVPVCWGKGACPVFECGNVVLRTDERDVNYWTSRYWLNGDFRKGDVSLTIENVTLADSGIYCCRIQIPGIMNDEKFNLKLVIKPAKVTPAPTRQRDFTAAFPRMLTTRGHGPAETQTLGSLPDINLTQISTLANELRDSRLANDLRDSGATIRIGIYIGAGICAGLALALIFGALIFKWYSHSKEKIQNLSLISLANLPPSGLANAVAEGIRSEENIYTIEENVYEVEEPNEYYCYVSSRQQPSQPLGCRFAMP
TIM-3 protein on human peripheral blood mononuclear lymphocytes (PBMC) (human), sequence (Q8TDQ0 22-301 limits assumed): as above
human TIM-3 extracellular domain protein with hFc tag (hTIM-3-hFc) (human), sequence (Q8TDQ0 22-200): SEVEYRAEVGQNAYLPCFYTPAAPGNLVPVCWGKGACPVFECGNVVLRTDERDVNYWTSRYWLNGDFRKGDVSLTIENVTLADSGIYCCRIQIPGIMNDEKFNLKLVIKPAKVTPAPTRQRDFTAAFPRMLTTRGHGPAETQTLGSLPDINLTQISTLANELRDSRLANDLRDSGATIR

OD450 [1]: 0.13 | Mean fluorescence intensity [2]: 2.8 | Inhibition ratio (%) [3]: 2.8% | Inhibition ratio (%) [4]: 9.6% | OD450 [5]: 0.23 | OD450 [6]: 0.07 | Mean fluorescence intensity [7]: 3.1 | Mean fluorescence intensity [8]: 2.9 | Inhibition ratio (%) [9]: -3.9% | OD450 [10]: 0.08 | Mean fluorescence intensity [11]: 2.9 | OD450 [12]: 0.15 | OD450 [13]: 0.43 | Mean fluorescence intensity [14]: 2.8 | Mean fluorescence intensity [15]: 5 | OD450 [16]: 0.21 | OD450 [17]: 0.14 | OD450 [18]: 0.14 | OD450 [19]: 0.18 | Inhibition ratio (%) [20]: -2.8% | Mean fluorescence intensity [21]: 3.7 | IFN-γ production (donor X); antibody 0.1 µg/ml, N = 1 [22]: 2040 pg/mL | IFN-γ production (donor X); antibody 0.1 µg/ml, N = 2 [22]: 2060 pg/mL | IFN-γ production (donor X); antibody 1 µg/ml, N = 1 [22]: 2090 pg/mL | IFN-γ production (donor X); antibody 1 µg/ml, N = 2 [22]: 2070 pg/mL | IFN-γ production (donor X); antibody 10 µg/ml, N = 1 [22]: 2030 pg/mL | IFN-γ production (donor X); antibody 10 µg/ml, N = 2 [22]: 2020 pg/mL | IFN-γ production (donor X); antibody '0' (4th head as printed), N = 1 [22]: 2260 pg/mL | IFN-γ production (donor X); antibody '0' (4th head as printed), N = 2 [22]: 1900 pg/mL | IFN-γ production (donor X); antibody '0' (5th head as printed), N = 1 [22]: 2000 pg/mL | IFN-γ production (donor X); antibody '0' (5th head as printed), N = 2 [22]: 2320 pg/mL | OD450 [23]: 0.07 | OD450 [24]: 0.73 | OD450 [25]: 0.07 | OD450 [26]: 0.21 | Mean fluorescence intensity [27]: 6 | Inhibition ratio (%) [28]: -7.8% | Mean fluorescence intensity [29]: 3.1
Substance: human IgG control (antibody)
